IC50 data for five molecules are collected here from patent publication US20140087995A1 (published 2014).

Numbered stars: 1 amine (or outer) side, 2 acyl side, 3 side chain; on linkers, the order of the positions; unused ones are H or OH. Bridge positions count the residues as written; N and C are the ends. * marks the point of attachment. C20 diacid = O=C(O)CCCCCCCCCCCCCCCCCCC(=O)*; γGlu = O=C(O)[C@H](CCC(=O)[*:2])N[*:1]

For the test, the target named is T1, human amylin receptor (amylin 3(a) receptor: human calcitonin receptor with RAMP-3) (human, UniProt P30988 25-474; O60896 24-148).
T1 construct: whole, on cells; also called hAmylin-R; hAmylinR
T1 sequence (looked up) 1: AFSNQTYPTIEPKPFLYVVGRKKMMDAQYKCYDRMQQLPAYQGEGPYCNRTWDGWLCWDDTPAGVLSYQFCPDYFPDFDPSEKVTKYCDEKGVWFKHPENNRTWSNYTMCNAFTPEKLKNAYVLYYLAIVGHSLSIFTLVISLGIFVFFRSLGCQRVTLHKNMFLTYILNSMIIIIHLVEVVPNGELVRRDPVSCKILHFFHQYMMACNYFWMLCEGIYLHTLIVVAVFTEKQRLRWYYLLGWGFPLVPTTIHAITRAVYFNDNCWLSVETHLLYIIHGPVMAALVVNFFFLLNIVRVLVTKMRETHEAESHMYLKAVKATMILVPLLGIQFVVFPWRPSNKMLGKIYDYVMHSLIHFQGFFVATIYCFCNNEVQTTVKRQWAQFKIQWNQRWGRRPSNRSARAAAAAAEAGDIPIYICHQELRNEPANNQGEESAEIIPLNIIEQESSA
T1 sequence (looked up) 2: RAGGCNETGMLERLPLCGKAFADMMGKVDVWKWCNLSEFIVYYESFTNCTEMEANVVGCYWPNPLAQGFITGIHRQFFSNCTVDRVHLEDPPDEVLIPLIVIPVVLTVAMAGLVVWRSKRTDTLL
The test can be described thus: SPA displacement of 125I-rat amylin, hAmylin 3(a) receptor membranes. How it is done: The binding assay was performed using scintillation proximity assay (SPA) beads (RPNQ0001) from PerkinElmer and cell membranes from the Amylin 3(a)/CRE-luc cells (as described in Assay (II)) were used. Membranes were prepared in the following way; the cells were rinsed with PBS and incubated with Versene for approximately 5 min before harvesting. The cells were flushed with PBS and the cell-suspension was centrifuged for 5 min at 1000 rpm. Cells were homogenized (ultrathurrax) in a buffer containing 20 mM Na-HEPES and 10 mM EDTA (pH 7.4) and centrifuged at 20.000 rpm for 15 min. The resulting pellet was resuspended, homogenized and centrifuged (20.000 rpm, 15 min) in a buffer containing 20 mM Na-HEPES and 0.1 mM EDTA (pH 7.4, buffer 2). The resulting pellet was resuspended in buffer 2 and protein concentration was measured (BCA protein Assay, Pierce). The homogenate was kept cold during the whole procedure. The membranes were kept at −80° C. until use. The assay was performed in a 384 well Optiplate (PerkinElmer) in a total volume of 40 ul. Membranes were mixed with SPA beads. Final concentration of membranes 35 ng/μL final and SPA beads was 0.05 mg/well. Test-compounds were dissolved in DMSO and further diluted in assay buffer (50 mM Hepes, pH 7.4, 1 mM CaCl2, 5 mM MgCl₂, 0.1% OA and 0.02% Tween20). […] The final mixture was incubated with shaking at 400 rpm for 120 min at 25° C. prior to centrifugation (1500 rpm, 10 min). Samples were analyzed on TopCounter™ (Packard). The IC₅₀ was calculated using (one site binding competition analysis) GraphPad Prism5 as a measure of receptor affinity.

B1: N^α1-[(4S)-4-carboxy-4-(19-carboxynonadecanoylamino)butanoyl]-[Glu14,Arg17,Pro21,Pro25,Pro28,Pro29,Pro37]-h-amylin (peptide)
peptide: {C20 diacid-γGlu}-KCNTATCATQRLAEFLRHSSPNFGPILPPTNVGSNTP-NH2
modifications: disulfide 2-7
SMILES: CC[C@H](C)[C@H](NC(=O)[C@@H]1CCCN1C(=O)CNC(=O)[C@H](Cc1ccccc1)NC(=O)[C@H](CC(N)=O)NC(=O)[C@@H]1CCCN1C(=O)[C@H](CO)NC(=O)[C@H](CO)NC(=O)[C@H](Cc1c[nH]cn1)NC(=O)[C@H](CCCNC(=N)N)NC(=O)[C@H](CC(C)C)NC(=O)[C@H](Cc1ccccc1)NC(=O)[C@H](CCC(=O)O)NC(=O)[C@H](C)NC(=O)[C@H](CC(C)C)NC(=O)[C@H](CCCNC(=N)N)NC(=O)[C@H](CCC(N)=O)NC(=O)[C@@H](NC(=O)[C@H](C)NC(=O)[C@@H]1CSSC[C@H](NC(=O)[C@H](CCCCN)NC(=O)CC[C@H](NC(=O)CCCCCCCCCCCCCCCCCCC(=O)O)C(=O)O)C(=O)N[C@@H](CC(N)=O)C(=O)N[C@@H]([C@@H](C)O)C(=O)N[C@@H](C)C(=O)N[C@@H]([C@@H](C)O)C(=O)N1)[C@@H](C)O)C(=O)N[C@@H](CC(C)C)C(=O)N1CCC[C@H]1C(=O)N1CCC[C@H]1C(=O)N[C@H](C(=O)N[C@@H](CC(N)=O)C(=O)N[C@H](C(=O)NCC(=O)N[C@@H](CO)C(=O)N[C@@H](CC(N)=O)C(=O)N[C@H](C(=O)N1CCC[C@H]1C(N)=O)[C@@H](C)O)C(C)C)[C@@H](C)O
notes: also called compound 4
For orientation: IC50 means the concentration that inhibits the measured activity by half. As for B1, the half-maximal inhibitory concentration (IC50) was 0.321 nM.

B2: N^α1-[(4S)-4-carboxy-4-(19-carboxynonadecanoylamino)butanoyl]-[Glu14,Arg17,Pro21,Pro26]-h-amylin (peptide)
peptide: {C20 diacid-γGlu}-KCNTATCATQRLAEFLRHSSPNFGAPLSSTNVGSNTY-NH2
modifications: disulfide 2-7
SMILES: CC(C)C[C@H](NC(=O)[C@H](CCCNC(=N)N)NC(=O)[C@H](CCC(N)=O)NC(=O)[C@@H](NC(=O)[C@H](C)NC(=O)[C@@H]1CSSC[C@H](NC(=O)[C@H](CCCCN)NC(=O)CC[C@H](NC(=O)CCCCCCCCCCCCCCCCCCC(=O)O)C(=O)O)C(=O)N[C@@H](CC(N)=O)C(=O)N[C@@H]([C@@H](C)O)C(=O)N[C@@H](C)C(=O)N[C@@H]([C@@H](C)O)C(=O)N1)[C@@H](C)O)C(=O)N[C@@H](C)C(=O)N[C@@H](CCC(=O)O)C(=O)N[C@@H](Cc1ccccc1)C(=O)N[C@@H](CC(C)C)C(=O)N[C@@H](CCCNC(=N)N)C(=O)N[C@@H](Cc1c[nH]cn1)C(=O)N[C@@H](CO)C(=O)N[C@@H](CO)C(=O)N1CCC[C@H]1C(=O)N[C@@H](CC(N)=O)C(=O)N[C@@H](Cc1ccccc1)C(=O)NCC(=O)N[C@@H](C)C(=O)N1CCC[C@H]1C(=O)N[C@@H](CC(C)C)C(=O)N[C@@H](CO)C(=O)N[C@@H](CO)C(=O)N[C@H](C(=O)N[C@@H](CC(N)=O)C(=O)N[C@H](C(=O)NCC(=O)N[C@@H](CO)C(=O)N[C@@H](CC(N)=O)C(=O)N[C@H](C(=O)N[C@@H](Cc1ccc(O)cc1)C(N)=O)[C@@H](C)O)C(C)C)[C@@H](C)O
notes: also called compound 7
With B2, the IC50 was 0.674 nM.

B3: N^α1-[(4S)-4-carboxy-4-(19-carboxynonadecanoylamino)butanoyl]-[Glu14,Arg17,Pro21,Pro26,Pro37]-h-amylin (peptide)
peptide: {C20 diacid-γGlu}-KCNTATCATQRLAEFLRHSSPNFGAPLSSTNVGSNTP-NH2
modifications: disulfide 2-7
SMILES: CC(C)C[C@H](NC(=O)[C@H](CCCNC(=N)N)NC(=O)[C@H](CCC(N)=O)NC(=O)[C@@H](NC(=O)[C@H](C)NC(=O)[C@@H]1CSSC[C@H](NC(=O)[C@H](CCCCN)NC(=O)CC[C@H](NC(=O)CCCCCCCCCCCCCCCCCCC(=O)O)C(=O)O)C(=O)N[C@@H](CC(N)=O)C(=O)N[C@@H]([C@@H](C)O)C(=O)N[C@@H](C)C(=O)N[C@@H]([C@@H](C)O)C(=O)N1)[C@@H](C)O)C(=O)N[C@@H](C)C(=O)N[C@@H](CCC(=O)O)C(=O)N[C@@H](Cc1ccccc1)C(=O)N[C@@H](CC(C)C)C(=O)N[C@@H](CCCNC(=N)N)C(=O)N[C@@H](Cc1c[nH]cn1)C(=O)N[C@@H](CO)C(=O)N[C@@H](CO)C(=O)N1CCC[C@H]1C(=O)N[C@@H](CC(N)=O)C(=O)N[C@@H](Cc1ccccc1)C(=O)NCC(=O)N[C@@H](C)C(=O)N1CCC[C@H]1C(=O)N[C@@H](CC(C)C)C(=O)N[C@@H](CO)C(=O)N[C@@H](CO)C(=O)N[C@H](C(=O)N[C@@H](CC(N)=O)C(=O)N[C@H](C(=O)NCC(=O)N[C@@H](CO)C(=O)N[C@@H](CC(N)=O)C(=O)N[C@H](C(=O)N1CCC[C@H]1C(N)=O)[C@@H](C)O)C(C)C)[C@@H](C)O
notes: also called compound 5
For B3, the IC50 is 0.374 nM.

B4: N^α1-[(4S)-4-carboxy-4-(19-carboxynonadecanoylamino)butanoyl]-[Glu14,Arg17,Pro21,Pro25,Pro28,Pro29]-h-amylin (peptide)
peptide: {C20 diacid-γGlu}-KCNTATCATQRLAEFLRHSSPNFGPILPPTNVGSNTY-NH2
modifications: disulfide 2-7
SMILES: CC[C@H](C)[C@H](NC(=O)[C@@H]1CCCN1C(=O)CNC(=O)[C@H](Cc1ccccc1)NC(=O)[C@H](CC(N)=O)NC(=O)[C@@H]1CCCN1C(=O)[C@H](CO)NC(=O)[C@H](CO)NC(=O)[C@H](Cc1c[nH]cn1)NC(=O)[C@H](CCCNC(=N)N)NC(=O)[C@H](CC(C)C)NC(=O)[C@H](Cc1ccccc1)NC(=O)[C@H](CCC(=O)O)NC(=O)[C@H](C)NC(=O)[C@H](CC(C)C)NC(=O)[C@H](CCCNC(=N)N)NC(=O)[C@H](CCC(N)=O)NC(=O)[C@@H](NC(=O)[C@H](C)NC(=O)[C@@H]1CSSC[C@H](NC(=O)[C@H](CCCCN)NC(=O)CC[C@H](NC(=O)CCCCCCCCCCCCCCCCCCC(=O)O)C(=O)O)C(=O)N[C@@H](CC(N)=O)C(=O)N[C@@H]([C@@H](C)O)C(=O)N[C@@H](C)C(=O)N[C@@H]([C@@H](C)O)C(=O)N1)[C@@H](C)O)C(=O)N[C@@H](CC(C)C)C(=O)N1CCC[C@H]1C(=O)N1CCC[C@H]1C(=O)N[C@H](C(=O)N[C@@H](CC(N)=O)C(=O)N[C@H](C(=O)NCC(=O)N[C@@H](CO)C(=O)N[C@@H](CC(N)=O)C(=O)N[C@H](C(=O)N[C@@H](Cc1ccc(O)cc1)C(N)=O)[C@@H](C)O)C(C)C)[C@@H](C)O
notes: also called compound 6
Consider B4, for which the IC50 is 0.996 nM.

B5: N^α1-[(4S)-4-carboxy-4-(19-carboxynonadecanoylamino)butanoyl]-[Glu14,Arg17,Pro21,Pro27,Arg35]-h-amylin (peptide)
peptide: {C20 diacid-γGlu}-KCNTATCATQRLAEFLRHSSPNFGAIPSSTNVGSRTY-NH2
modifications: disulfide 2-7
SMILES: CC[C@H](C)[C@H](NC(=O)[C@H](C)NC(=O)CNC(=O)[C@H](Cc1ccccc1)NC(=O)[C@H](CC(N)=O)NC(=O)[C@@H]1CCCN1C(=O)[C@H](CO)NC(=O)[C@H](CO)NC(=O)[C@H](Cc1c[nH]cn1)NC(=O)[C@H](CCCNC(=N)N)NC(=O)[C@H](CC(C)C)NC(=O)[C@H](Cc1ccccc1)NC(=O)[C@H](CCC(=O)O)NC(=O)[C@H](C)NC(=O)[C@H](CC(C)C)NC(=O)[C@H](CCCNC(=N)N)NC(=O)[C@H](CCC(N)=O)NC(=O)[C@@H](NC(=O)[C@H](C)NC(=O)[C@@H]1CSSC[C@H](NC(=O)[C@H](CCCCN)NC(=O)CC[C@H](NC(=O)CCCCCCCCCCCCCCCCCCC(=O)O)C(=O)O)C(=O)N[C@@H](CC(N)=O)C(=O)N[C@@H]([C@@H](C)O)C(=O)N[C@@H](C)C(=O)N[C@@H]([C@@H](C)O)C(=O)N1)[C@@H](C)O)C(=O)N1CCC[C@H]1C(=O)N[C@@H](CO)C(=O)N[C@@H](CO)C(=O)N[C@H](C(=O)N[C@@H](CC(N)=O)C(=O)N[C@H](C(=O)NCC(=O)N[C@@H](CO)C(=O)N[C@@H](CCCNC(=N)N)C(=O)N[C@H](C(=O)N[C@@H](Cc1ccc(O)cc1)C(N)=O)[C@@H](C)O)C(C)C)[C@@H](C)O
notes: also called 16; compound 16
In the case of B5, the IC50 turned out to be 0.894 nM.
